Laboratory results taken from the supplement of paper PMC10567573.

B1: SLC19A2 (parent)
chain: FHHIPSTCQRVNGIKVQNGGIVTD

Variants of: B1
Assay: protein stability index of a GFP-peptide fusion (GPS, HEK-293T) (PSI 1-6); higher = more stable
Details: c terminus: a fixed tail appended
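Further: lentivirally expressed fusions sorted by FACS into six bins by GFP to DsRed ratio, PSI derived from sequencing read proportions per bin multiplied by bin number.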

| Variant | protein stability index |
| --- | --- |
| FHHIPSTCQRVNRIKVQNGGIVTD [G13R] | 2.21 |
| FHHIPSTCQRVNKIKVQNGGIVTD [G13K] | 2.5 |
| FHHIPSTCQRVNLIKVQNGGIVTD [G13L] | 1.58 |
| FHHIPSTCQRVNSIKVQNGGIVTD [G13S] | 1.97 |
| FHHIPSTCQRVNNIKVQNGGIVTD [G13N] | 2.01 |
| FHHIPSTCQRVNHIKVQNGGIVTD [G13H] | 1.64 |
| FHHIPSTCQRVNTIKVQNGGIVTD [G13T] | 2.28 |
| FHHIPSTCQRVNAIKVQNGGIVTD [G13A] | 1.77 |
| FHHIPSTCQRVNVIKVQNGGIVTD [G13V] | 1.73 |
| FHHIPSTCQRVNEIKVQNGGIVTD [G13E] | 2.13 |
| FHHIPSTCQRVNDIKVQNGGIVTD [G13D] | 2 |
| FHHIPSTCQRVNPIKVQNGGIVTD [G13P] | 1.85 |
| FHHIPSTCQRVNCIKVQNGGIVTD [G13C] | 1.89 |
| FHHIPSTCQRVNYIKVQNGGIVTD [G13Y] | 2.19 |
| FHHIPSTCQRVNIIKVQNGGIVTD [G13I] | 1.75 |
| FHHIPSTCQRVNMIKVQNGGIVTD [G13M] | 2.08 |
| FHHIPSTCQRVNFIKVQNGGIVTD [G13F] | 1.71 |
| FHHIPSTCQRVNQIKVQNGGIVTD [G13Q] | 2.73 |
| FHHIPSTCQRVNGHKVQNGGIVTD [I14H] | 2.31 |
| FHHIPSTCQRVNGPKVQNGGIVTD [I14P] | 2.19 |
| FHHIPSTCQRVNGQKVQNGGIVTD [I14Q] | 2.14 |
| FHHIPSTCQRVNGMKVQNGGIVTD [I14M] | 2.23 |
| FHHIPSTCQRVNGSKVQNGGIVTD [I14S] | 2.62 |
| FHHIPSTCQRVNGFKVQNGGIVTD [I14F] | 2.32 |

| Variant | protein stability index |
| --- | --- |
| FHHIPSTCQRVNGAKVQNGGIVTD [I14A] | 2.2 |
| FHHIPSTCQRVNGLKVQNGGIVTD [I14L] | 2 |
| FHHIPSTCQRVNGCKVQNGGIVTD [I14C] | 1.72 |
| FHHIPSTCQRVNGNKVQNGGIVTD [I14N] | 2.07 |
| FHHIPSTCQRVNGRKVQNGGIVTD [I14R] | 2.18 |
| FHHIPSTCQRVNGKKVQNGGIVTD [I14K] | 2.19 |
| FHHIPSTCQRVNGTKVQNGGIVTD [I14T] | 2.17 |
| FHHIPSTCQRVNGDKVQNGGIVTD [I14D] | 1.88 |
| FHHIPSTCQRVNGGKVQNGGIVTD [I14G] | 2.6 |
| FHHIPSTCQRVNGEKVQNGGIVTD [I14E] | 2.69 |
| FHHIPSTCQFVNGIKVQNGGIVTD [R10F] | 1.7 |
| FHHIPSTCQGVNGIKVQNGGIVTD [R10G] | 2.23 |
| FHHIPSTCQSVNGIKVQNGGIVTD [R10S] | 1.89 |
| FHHIPSTCQHVNGIKVQNGGIVTD [R10H] | 2.5 |
| FHHIPSTCQCVNGIKVQNGGIVTD [R10C] | 2.36 |
| FHHIPSTCQDVNGIKVQNGGIVTD [R10D] | 2.65 |
| FHHIPSTCQTVNGIKVQNGGIVTD [R10T] | 1.99 |
| FHHIPSTCQLVNGIKVQNGGIVTD [R10L] | 2.46 |
| FHHIPSTCQVVNGIKVQNGGIVTD [R10V] | 2.46 |
| FHHIPSTCQPVNGIKVQNGGIVTD [R10P] | 1.78 |
| FHHIPSTCQMVNGIKVQNGGIVTD [R10M] | 1.67 |
| FHHIPSTCQAVNGIKVQNGGIVTD [R10A] | 1.81 |
| FHHIPSTCQYVNGIKVQNGGIVTD [R10Y] | 2.07 |
| FHHIPSTCQQVNGIKVQNGGIVTD [R10Q] | 1.87 |

| Variant | protein stability index |
| --- | --- |
| FHHIPSTCQWVNGIKVQNGGIVTD [R10W] | 2.97 |
| FHHIPSTCQKVNGIKVQNGGIVTD [R10K] | 1.91 |
| FHHIPSTCQEVNGIKVQNGGIVTD [R10E] | 2.46 |
| FHHIPSTCQNVNGIKVQNGGIVTD [R10N] | 1.6 |
| FHHIPSTCQIVNGIKVQNGGIVTD [R10I] | 1.98 |
| FHHIPSTCQRINGIKVQNGGIVTD [V11I] | 2.43 |
| FHHIPSTCQRWNGIKVQNGGIVTD [V11W] | 1.44 |
| FHHIPSTCQRGNGIKVQNGGIVTD [V11G] | 2.19 |
| FHHIPSTCQRENGIKVQNGGIVTD [V11E] | 2.08 |
| FHHIPSTCQRYNGIKVQNGGIVTD [V11Y] | 2.09 |
| FHHIPSTCQRSNGIKVQNGGIVTD [V11S] | 1.93 |
| FHHIPSTCQRDNGIKVQNGGIVTD [V11D] | 2.42 |
| FHHIPSTCQRMNGIKVQNGGIVTD [V11M] | 2.26 |
| FHHIPSTCQRCNGIKVQNGGIVTD [V11C] | 1.49 |
| FHHIPSTCQRLNGIKVQNGGIVTD [V11L] | 1.59 |
| FHHIPSTCQRHNGIKVQNGGIVTD [V11H] | 1.83 |
| FHHIPSTCQRRNGIKVQNGGIVTD [V11R] | 3.19 |
| FHHIPSTCQRNNGIKVQNGGIVTD [V11N] | 2.49 |
| FHHIPSTCQRPNGIKVQNGGIVTD [V11P] | 2.54 |
| FHHIPSTCQRQNGIKVQNGGIVTD [V11Q] | 2.48 |
| FHHIPSTCQRTNGIKVQNGGIVTD [V11T] | 2.04 |
| FHHIPSTCQRKNGIKVQNGGIVTD [V11K] | 2.11 |
| FHHIPSTCQRFNGIKVQNGGIVTD [V11F] | 1.81 |
| FHHIPSTCQRANGIKVQNGGIVTD [V11A] | 2.25 |

| Variant | protein stability index |
| --- | --- |
| FHHIPSTCTRVNGIKVQNGGIVTD [Q9T] | 1.84 |
| FHHIPSTCRRVNGIKVQNGGIVTD [Q9R] | 1.77 |
| FHHIPSTCSRVNGIKVQNGGIVTD [Q9S] | 1.67 |
| FHHIPSTCVRVNGIKVQNGGIVTD [Q9V] | 2.04 |
| FHHIPSTCQRVQGIKVQNGGIVTD [N12Q] | 2.43 |
| FHHIPSTCQRVWGIKVQNGGIVTD [N12W] | 1.01 |
| FHHIPSTCQRVSGIKVQNGGIVTD [N12S] | 2.36 |
| FHHIPSTCQRVEGIKVQNGGIVTD [N12E] | 2.04 |
| FHHIPSTCQRVIGIKVQNGGIVTD [N12I] | 1.42 |
| FHHIPSTCQRVLGIKVQNGGIVTD [N12L] | 2.1 |
| FHHIPSTCQRVTGIKVQNGGIVTD [N12T] | 1.78 |
| FHHIPSTCQRVGGIKVQNGGIVTD [N12G] | 2.07 |
| FHHIPSTCQRVRGIKVQNGGIVTD [N12R] | 2.47 |
| FHHIPSTCQRVDGIKVQNGGIVTD [N12D] | 2.86 |
| FHHIPSTCQRVCGIKVQNGGIVTD [N12C] | 1.84 |
| FHHIPSTCQRVHGIKVQNGGIVTD [N12H] | 1.89 |
| FHHIPSTCQRVYGIKVQNGGIVTD [N12Y] | 1.78 |
| FHHIPSTCQRVPGIKVQNGGIVTD [N12P] | 2.05 |
| FHHIPSTCQRVKGIKVQNGGIVTD [N12K] | 2.22 |
| FHHIPSTCQRVAGIKVQNGGIVTD [N12A] | 1.84 |
| FHHIPSTCQRVFGIKVQNGGIVTD [N12F] | 1.74 |
| FHHIPSTCQRVVGIKVQNGGIVTD [N12V] | 1.82 |
